Values of other authors as cited in US8071839B2, “Transgenic mouse comprising a polynucleotide encoding human or humanized C5aR and methods of production and use” (G2 Inflammation Pty Ltd, priority 2003, dated 2011).

T1: C5aR (Homo sapiens, UniProt P21730)
T1 sequence (P21730 1-350): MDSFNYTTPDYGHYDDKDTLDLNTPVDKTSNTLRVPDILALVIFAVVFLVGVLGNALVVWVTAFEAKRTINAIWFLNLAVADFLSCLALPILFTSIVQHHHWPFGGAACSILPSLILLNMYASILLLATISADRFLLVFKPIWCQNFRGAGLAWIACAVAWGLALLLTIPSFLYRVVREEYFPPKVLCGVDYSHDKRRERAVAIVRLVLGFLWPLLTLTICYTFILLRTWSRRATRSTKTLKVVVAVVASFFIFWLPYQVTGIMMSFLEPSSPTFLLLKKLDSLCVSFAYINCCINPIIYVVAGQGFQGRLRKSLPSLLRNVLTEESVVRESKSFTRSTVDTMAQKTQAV


Columns and labels:
C5aR [1] = molecular target: T1, C5aR
C5aR [2] = molecular target: T1, C5aR; conditions: read-out: Kd of C5aR for C5a

Molecule	binding affinity for human C5aR (C5aR [1])	Kd (C5aR [2])
murine C5a: mouse C5a, ligand that binds human C5aR (protein, UniProt P06684 679-755, looked up, C5a anaphylatoxin) C5a anaphylatoxin: NLHLLRQKIEEQAAKYKHSVPKKCCYDGARVNFYETCEERVARVTIGPLCIRAFNECCTIANKIRKESPHKPVQLGR	high affinity	
C5a: anaphylatoxin fragment of complement protein C5, natural ligand of C5aR (protein, UniProt P01031 678-751, looked up, C5a anaphylatoxin, anaphylatoxin fragment of complement protein C5, natural ligand of C5aR) C5a anaphylatoxin: TLQKKIEEIAAKYKHSVVKKCCYDGACVNNDETCEQRAARISLGPRCIKAFTECCVVASQLRANISHKDMQLGR		~1 nM
